What was measured:
[1] = test system: Lewis lung carcinoma (LLC) tumours; assay: Lewis lung carcinoma tumour growth in mice; format: in vivo, C57BL/6 mice; settings: Example 18; 28 g Fe-Lf per 2.4 Kg diet; epirubucin 15 mg/Kg i.p.
Protocol: (§1) Tumors were established by s.c. injection of 2×10^5 EL-4 cells into the left flank of mice, and growth determined by measuring two perpendicular diameters. Animals were euthanased when tumors reached more than 1.0 cm in diameter, in accord with Animal Ethics Approval (University of Auckland). All experiments included 5 mice per treatment group, unless otherwise indicated. Paclitaxel (30 mg dissolved in 5 ml of Cremophor® EL and dehydrated alcohol) was diluted in 0.9% NaCl and administered i.p. at 30 mg/Kg. Doxorubucin in water was injected i.p. at 15 mg/Kg. The drugs were injected in a volume of 0.01 to 0.02 ml/g body weight. The expression vector encoding mouse B7-1 was prepared by cesium chloride gradient centrifugation, and diluted to 5 μg/μl in a solution of 5% glucose in 0.01% Triton X-100. It was mixed in a ratio of 1:1 (wt:wt) with DOTAP cationic liposomes (Boehringer Mannheim, Germany). Tumors were injected with 180 μl of DNA (180 μg)/liposome complexes, as described previously (Kanwar, et al., 1999 and Kanwar, et al., 2000).
(§2) Mice were fed the control diet, and the same diet supplemented with 28 g of 100% Fe-saturated lactoferrin per 2.4 Kg of diet. EL-4 (2×10^5), Lewis lung carcinoma (LLC, 2×10^5), and B16 melanoma (2×10^5) tumour cells were injected into the left flanks of C57BL/6 mice following two weeks on the Lf diets, or control diet. […]

B16 target cells = assay: Anti-tumour cytolytic activity of splenocytes against B16 target cells; format: in vivo, C57BL/6 mice; settings: Example 18, FIG. 14D (fluorouracil experiment), vs controls
Protocol: Splenocytes were tested for their cytolytic activity against tumour target cells. […] Referring to FIGS. 14B, D, and F the percent cytotoxicity is plotted against various effector-to-target cell ratios (E:T ratios); each point represents the mean percent cytotoxicity obtained from 5 mice; and the bar represents 95% confidence intervals.

EL-4 target cells = assay: Anti-tumour CTL and/or NK cell cytolytic activity of splenocytes against EL-4 target cells; settings: for increase in anti-tumour CTL and/or NK cell activity: Example 2, day 98; for increase in anti-tumour cytolytic activity: Example 18, EL-4, vs controls
Protocol: Splenocytes were harvested 28 days following tumour cell injection, as specified. They were incubated at 37° C. with EL-4 target cells in graded E:T ratios in 96-well round-bottom plates. After a 4-hour incubation, 50 μl of supernatant was collected, and lysis was measured using the Cyto Tox 96 Assay Kit (Promega, Madison, Wis., USA). Background controls for non-specific target and effector cell lysis were included. After background subtraction, percentage of cell lysis was calculated using the formula: 100× (experimental-spontaneous effector-spontaneous target/maximum target-spontaneous target).

[2] = test system: Th1 (IL-18, TNF-α, IFN-γ) and Th2 (IL-4, IL-5, IL-6, IL-10) cytokines; assay: ELISA of Th1 and Th2 cytokines in intestine and tumour; format: in vivo, mice; settings: Example 14
Protocol: (§3) Cytokine levels in the supernatants of homogenates of the small intestine were determined using a “sandwich” ELISA kit (Endogen, Woburn, Mass.). They were detected within standard curve ranges of 15-375 pg/ml for IL-4, 0-2450 pg/ml for IL-5, 15-1000 pg/ml for TNF-α, 0-3000 pg/ml for IFN-γ, 37-3000 pg/ml for IL-10, 31.3-2000 pg/ml for IL-12, and 31.3-2000 pg/ml for IL-18, respectively. Quantification of nitrite, indicative of NO production, was carried out by the Griess reaction (Sigma, USA). The results are expressed as the mean nitrite concentration (μM)±SD.
The ability of oral iron-saturated lactoferrin to affect the expression of a panel of Th1 and Th2 cytokines was examined in non-tumour-bearing mice, and in tumour-bearing mice fed iron-saturated bovine lactoferrin or the control diet, and treated with either paclitaxel or doxorubicin or a combination of the two drugs.

EL-4 tumours = assay: EL-4 tumour growth in mice (s.c. flank tumour model); format: in vivo, C57BL/6 mice; settings: for inhibition of tumour growth: Example 1, oral diet, day 42
IL-18 = IL-18 production by cultured intestinal loops; format: cell-based, mice; settings: Example 20; 400 and 800 μg/ml; 48 h; vs bovine serum albumin control protein
Protocol: as §3
100% Fe-saturated Lf, natural Lf (less than 20% iron saturated), and bovine serum albumin control were added at 400 and 800 μg/ml to intestinal loops (2.5 cm segments of the small intestine) prepared from healthy 6 to 7 week-old female mice, which were kept in culture for 48 h. IL-18 levels released by the intestinal loops, and present in the supernatants of homogenates of the small intestine were determined using a “sandwich” ELISA kit as described above.

[3] = test system: cultured EL-4 tumour cells; assay: Apoptosis of cultured EL-4 tumour cells triggered by sera of fed mice; format: cell-based, C57BL/6 mice; settings: Example 17; sera after 6 weeks of 28 g per 2.4 Kg diet; vs spontaneous apoptosis; control-diet sera 80%
Protocol: Feeding of Fe-saturated lactoferrin releases anti-tumour factors into the systemic circulation. Fifteen 8 to 9 week-old female C57BL/6 mice were fed the control AIN-93 diet or a diet supplemented with 28 g of 100% Fe-saturated lactoferrin per 2.4 Kg of diet. Sera was collected from experimental and control mice after 6 weeks of feeding the latter diets and tested for their ability to trigger the apoptosis of cultured EL-4 tumour cells.
Sera collected from experimental and control mice was tested for its ability to trigger the apoptosis of cultured EL-4 tumour cells. EL-4 cells (2×10^3) in 80 μl of DMEM media were incubated for 24 h in the presence or absence of 100 μl of sera that had been concentrated to 20 μl. The cells were then washed, permeabilized with a solution containing 0.1% Triton X-100 and 0.1% sodium citrate, and incubated with 20 μl of TUNEL reagent (In Situ apoptosis detection kit from Boehringer Mannheim, Germany) for 60 min at 37° C., and examined by fluorescence microscopy. Total numbers of cells were counted by staining the cells with methylene blue. The number of apoptotic cells was counted in ten randomly selected fields (magnification of ×40). The apototic index (AI) was calculated as the number of apoptotic cells×100/total number of nucleated cells.

B16 melanoma tumours = assay: B16 melanoma tumour growth in mice; format: in vivo, C57BL/6 mice; settings: Example 18; 28 g Fe-Lf per 2.4 Kg diet; fluorouracil 150 mg/Kg i.p.
Protocol: as §1, §2

B1: iron-saturated bovine lactoferrin: Iron-saturated bovine lactoferrin extract (100% saturated) prepared from natural bLf (protein)
chain: APRKNVRWCTISQPEWFKCRRWQWRMKKLGAPSITCVRRAFALECIRAIAEKKADAVTLDGGMVFEAGRDPYKLRPVAAEIYGTKESPQTHYYAVAVVKKGSNFQLDQLQGRKSCHTGLGRSAGWIIPMGILRPYLSWTESLEPLQGAVAKFFSASCVPCIDRQAYPNLCQLCKGEGENQCACSSREPYFGYSGAFKCLQDGAGDVAFVKETTVFENLPEKADRDQYELLCLNNSRAPVDAFKECHLAQVPSHAVVARSVDGKEDLIWKLLSKAQEKFGKNKSRSFQLFGSPPGQRDLLFKDSALGFLRIPSKVDSALYLGSRYLTTLKNLRETAEEVKARYTRVVWCAVGPEEQKKCQQWSQQSGQNVTCATASTTDDCIVLVLKGEADALNLDGGYIYTAGKCGLVPVLAENRKSSKHSSLDCVLRPTEGYLAVAVVKKANEGLTWNSLKDKKSCHTAVDRTAGWNIPMGLIVNQTGSCAFDEFFSQSCAPGADPKSRLCALCAGDDQGLDKCVPNSKEKYYGYTGAFRCLAEDVGDVAFVKNDTVWENTNGESTADWAKNLNREDFRLLCLDGTRKPVTEAQSCHLAVAPNHAVVSRSDRAAHVKQVLLHQQALFGKNGKNCPDKFCLFKSETKNLLFNDNTECLAKLGGRPTYEEYLGTEYVTAIANLKKCSTSPLLEACAFLTR
modifications: iron-saturated; Bovine Lactoferrin
notes: Iron-saturated bovine lactoferrin extract (100% saturated) prepared from natural bLf
How did the LLC tumour response [1] turn out when B1 was run?
Its LLC tumour response is “slowed the growth of all three tumour types, but failed to eradicate the tumours altogether”.

And the “increase in anti-tumour cytolytic activity” value (B16 target cells)?
Its value is 45%.

And the “anti-tumour CTL and/or NK cell activity of splenocytes” value (EL-4 target cells; Example 1, splenocytes at day 42, vs control diet)?
The value was “significantly (P<0.05) increased”.

And the “increase in anti-tumour CTL and/or NK cell activity” value (EL-4 target cells; mice that remained tumour-free, vs control diet, P<0.001)?
Its value is 6 fold.

And the “increase in anti-tumour CTL and/or NK cell activity” value (EL-4 target cells; mice who developed tumours and were switched to control diet, vs control diet, P<0.001)?
Its value is 30 fold.

And the “increase in anti-tumour cytolytic activity of splenocytes” value (EL-4 target cells; Example 15, the one mouse that resisted the tumour challenge, vs control, P<0.001)?
The value was 6 fold.

What about the “increase in anti-tumour cytolytic activities of splenocytes” value (EL-4 target cells; Example 16, 6 of 30 mice that rejected the tumour on 1, 5 and 25 g diets, p<0.001) of the same molecule?
The value was 3 to 4.6 fold.

And the “increase in anti-tumour cytolytic activity” value (EL-4 target cells; FIG. 14B (epirubucin experiment))?
Its value is 130%.

What about the “increase in anti-tumour cytolytic activity” value (EL-4 target cells; FIG. 14D (fluorouracil experiment)) of the same molecule?
Its value is 87%.

What about the “increase in anti-tumour cytolytic activity” value (EL-4 target cells; FIG. 14F (cyclophosphamide/methotrexate experiment)) of the same molecule?
The value was 100%.

What about the “cytokines within the tumor site” value [2] of the same molecule?
Its value is “increased the presence of all cytokines”.

And the “levels of IL-18 and IL-10 in tumour-bearing mice relative to non-tumour-bearing mice” value ([2]; oral feeding)?
Its value is “less than half”.

What about the “inhibition of tumour growth” value (EL-4 tumours; 2 of 5 mice, vs control diet, P>0.05) of the same molecule?
The value was 31%.

What about the “inhibition of tumour growth” value (EL-4 tumours; the latter 3 mice (tumours first prevented for one week), P<0.05) of the same molecule?
The value was 51%.

And the “mice remaining completely tumour-free” value (EL-4 tumours; Example 2, of 24 mice, monitored 11 weeks)?
The value was “Four”.

And the “mice that resisted the tumour challenge for 6 weeks” value (EL-4 tumours; Example 2, of 24 mice, tumours then grew at reduced rate)?
The value was “Five”.

What about the “time for tumours to reach 0.4 cm in diameter” value (EL-4 tumours; Example 13, diet started at ~0.2 cm, control mice one week) of the same molecule?
The value was “two”.

And the “mice of ten that completely rejected the tumour challenge” value (EL-4 tumours; Example 15, 20 g of Lf per 2.4 Kg diet)?
Its value is “one”.

What about the “mice of ten that completely rejected the tumour challenge” value (EL-4 tumours; Example 16, 1 g Fe-Lf per 2.4 Kg diet) of the same molecule?
The value was “one”.

What about the “tumour growth rate vs control diet” value (EL-4 tumours; Example 16, 5 and 25 g per 2.4 Kg diet) of the same molecule?
The value was “grew significantly (p<0.05 at days 35-49) more slowly”.

And the “mice of ten that completely rejected the tumour challenge” value (EL-4 tumours; Example 16, 5 g Fe-Lf per 2.4 Kg diet)?
Its value is “two”.

What about the “mice of ten that completely rejected the tumour challenge” value (EL-4 tumours; Example 16, 25 g Fe-Lf per 2.4 Kg diet) of the same molecule?
The value was “three”.

What about the “tumour growth rate vs control diet” value (EL-4 tumours; Example 16, lowest and highest doses (1 and 100 g per 2.4 Kg diet)) of the same molecule?
The value was “did not differ greatly”.

And the EL-4 tumour response (EL-4 tumours; Example 18, 28 g Fe-Lf per 2.4 Kg diet, drugs i.p. at ~0.4 to 0.5 cm)?
Its EL-4 tumour response is “slowed the growth of all three tumour types, but failed to eradicate the tumours altogether”.

What about the “increase in the levels of IL-18 in the intestine” value (IL-18) of the same molecule?
Its value is 10 fold.

And the “increase in tumour cell apoptosis induced by sera” value [3]?
The value was 300%.

And the B16 tumour response (B16 melanoma tumours)?
The B16 tumour response was “slowed the growth of all three tumour types, but failed to eradicate the tumours altogether”.
